# According to PMC5961032:
# Legend:
# [1] = target: native catalytic subunit of PP1 from rabbit skeletal muscle (PP1^N) (rabbit) (UniProt P62139)
# PP1α (7–330) = PP1α (7–330) (UniProt P62136)
# Chain of UniProt P62136 (P62136 7-330): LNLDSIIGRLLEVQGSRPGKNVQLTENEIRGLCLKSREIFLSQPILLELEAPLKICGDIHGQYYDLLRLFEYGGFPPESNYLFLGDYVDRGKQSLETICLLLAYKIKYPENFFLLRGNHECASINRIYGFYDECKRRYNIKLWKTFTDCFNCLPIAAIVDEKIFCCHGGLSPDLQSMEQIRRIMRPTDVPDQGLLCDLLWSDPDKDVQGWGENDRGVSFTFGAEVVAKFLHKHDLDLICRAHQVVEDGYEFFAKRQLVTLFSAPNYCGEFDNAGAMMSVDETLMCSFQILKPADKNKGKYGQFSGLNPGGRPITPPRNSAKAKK
# Chain of UniProt P62139 (P62139 whole entry): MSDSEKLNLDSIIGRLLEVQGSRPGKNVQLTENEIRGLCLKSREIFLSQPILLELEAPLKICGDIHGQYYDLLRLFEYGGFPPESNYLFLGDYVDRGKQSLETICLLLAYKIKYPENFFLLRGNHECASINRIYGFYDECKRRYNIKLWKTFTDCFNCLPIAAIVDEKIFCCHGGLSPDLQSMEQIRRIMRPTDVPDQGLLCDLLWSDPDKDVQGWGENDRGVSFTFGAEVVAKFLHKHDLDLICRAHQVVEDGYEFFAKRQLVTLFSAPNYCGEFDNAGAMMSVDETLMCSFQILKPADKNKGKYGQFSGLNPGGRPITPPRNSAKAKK
# Chain of MBP-PPP1R15A^325–636 (O75807 325-636): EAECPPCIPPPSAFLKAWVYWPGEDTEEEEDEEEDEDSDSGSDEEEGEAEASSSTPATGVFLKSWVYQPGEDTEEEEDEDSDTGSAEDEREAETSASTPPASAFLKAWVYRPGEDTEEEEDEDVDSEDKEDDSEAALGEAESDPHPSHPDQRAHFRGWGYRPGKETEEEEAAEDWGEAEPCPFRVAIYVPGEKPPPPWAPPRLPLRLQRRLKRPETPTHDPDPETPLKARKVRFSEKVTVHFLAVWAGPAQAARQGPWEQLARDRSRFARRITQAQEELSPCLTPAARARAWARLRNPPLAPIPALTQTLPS
# Chain of PPP1R15A^325–636-MBP (O75807 325-636): as above
"EC50 of the stimulation of eIF2α^P (2 μM) dephosphorylation by PP1^N (20 nM) with G-actin (400 nM), PPP1R15A^325–636-MBP 0–100 nM, 30 min at 30 °C [1]","EC50 of the stimulation of eIF2α^P (2 μM) dephosphorylation by PP1α (24 nM) with G-actin (400 nM), MBP-PPP1R15A^325–636 0–100 nM, 20 min at 30 °C (PP1α (7–330))",Substance
58 nM,–,PPP1R15A^325–636-MBP (from UniProt O75807 325-636) (domain or fragment)
–,6 nM,MBP-PPP1R15A^325–636 (from UniProt O75807 325-636) (domain or fragment)
